Results taken from patent publication US20050265970A1.

Target: GST-MKK7 (GST-JNKK2; human JNKK2 in pGEX-2T) (human) (UniProt O14733)
Experiment: in vitro pull-down with purified GST-MKK7 and increasing His6/T7-tagged protein, anti-T7 Western blot; JIP1 under non-saturating conditions

Chain of GST-MKK7 (GST-JNKK2; human JNKK2 in pGEX-2T) (human) (O14733 1-401 Q94H/Q133P): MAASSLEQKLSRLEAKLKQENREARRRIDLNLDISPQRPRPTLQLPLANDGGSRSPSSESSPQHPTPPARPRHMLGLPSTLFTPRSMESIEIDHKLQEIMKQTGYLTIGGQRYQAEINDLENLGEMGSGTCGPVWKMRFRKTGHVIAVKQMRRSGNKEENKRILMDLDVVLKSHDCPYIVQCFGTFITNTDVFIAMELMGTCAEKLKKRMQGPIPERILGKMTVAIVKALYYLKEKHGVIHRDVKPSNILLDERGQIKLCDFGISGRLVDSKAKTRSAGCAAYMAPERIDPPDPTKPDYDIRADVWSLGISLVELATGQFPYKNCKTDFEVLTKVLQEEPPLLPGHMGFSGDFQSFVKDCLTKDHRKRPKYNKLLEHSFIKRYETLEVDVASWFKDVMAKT

## His6/T7-JIP1 (MKK7-binding domain of JIP1b, pET28)
  half maximum binding (HMB): > 650 nM
